According to patent US20220363763A1:

Columns and labels:
[1] = target: human LAG3 on cells (human) (UniProt P18627); test: flow cytometry (MFI) on Jurkat-LAG3 cells, upper panel; EC50 table has no unit, x axis Concentration (nM); fit value of a flat control curve
[2] = target: human LAG3 on cells (human) (UniProt P18627); test: flow cytometry (MFI) on activated CD4 T cells, lower panel; EC50 table has no unit, x axis Concentration (nM); fit value of a flat control curve
[3] = target: human PD-L1 expressed on mammalian cells (human) (UniProt Q9NZQ7); test: cell-based binding on Raji-PDL1 cells (FACS by paragraph 328; the y axis of the sheet is labelled IL2 (ng/ml)); EC50 table has no unit, x axis Concentration (nM)
Sequence of human PD-L1 expressed on mammalian cells (human) (Q9NZQ7 19-290): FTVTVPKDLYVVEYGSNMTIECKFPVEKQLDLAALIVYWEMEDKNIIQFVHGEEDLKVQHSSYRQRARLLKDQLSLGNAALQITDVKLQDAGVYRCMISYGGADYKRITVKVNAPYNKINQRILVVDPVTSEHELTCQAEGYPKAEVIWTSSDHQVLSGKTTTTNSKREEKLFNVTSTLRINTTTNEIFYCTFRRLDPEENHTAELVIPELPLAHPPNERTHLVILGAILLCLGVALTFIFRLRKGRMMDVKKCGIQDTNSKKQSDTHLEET

[4] = target: human PD-L1-Fc protein (human) (UniProt Q9NZQ7); test: ELISA on coated human PD-L1-Fc; EC50 table has no unit, x axis Ab(nM); fit value of a flat control curve
Sequence of human PD-L1-Fc protein (human) (Q9NZQ7 19-239 limits assumed): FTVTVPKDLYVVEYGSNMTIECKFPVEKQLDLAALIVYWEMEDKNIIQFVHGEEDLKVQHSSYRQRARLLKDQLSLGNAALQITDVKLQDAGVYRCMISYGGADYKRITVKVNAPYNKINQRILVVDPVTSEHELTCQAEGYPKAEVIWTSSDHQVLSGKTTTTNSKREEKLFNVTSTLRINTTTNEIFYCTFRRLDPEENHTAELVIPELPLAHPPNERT

Sequence of human LAG3 on cells (human) (P18627 23-525): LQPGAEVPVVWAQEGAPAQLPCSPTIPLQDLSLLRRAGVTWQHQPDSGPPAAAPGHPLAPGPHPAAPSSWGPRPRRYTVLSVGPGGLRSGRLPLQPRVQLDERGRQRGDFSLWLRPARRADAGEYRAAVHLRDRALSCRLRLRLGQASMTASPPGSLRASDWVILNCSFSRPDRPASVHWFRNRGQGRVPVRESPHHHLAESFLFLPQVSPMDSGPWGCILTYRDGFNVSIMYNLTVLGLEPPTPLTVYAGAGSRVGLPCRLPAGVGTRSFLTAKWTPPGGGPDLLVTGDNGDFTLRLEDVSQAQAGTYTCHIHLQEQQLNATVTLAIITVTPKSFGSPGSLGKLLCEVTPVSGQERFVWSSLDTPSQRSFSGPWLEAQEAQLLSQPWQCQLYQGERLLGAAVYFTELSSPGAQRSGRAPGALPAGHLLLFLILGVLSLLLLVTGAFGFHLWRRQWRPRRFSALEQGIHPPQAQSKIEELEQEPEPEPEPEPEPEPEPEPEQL

IgG (antibody)
EC50 [1]: 0.000463 µM | EC50 [2]: 3590 µM

Tecentriq (antibody)
EC50 [3]: 0.000891 µM

hIgG (antibody)
EC50 [4]: 0.0848 µM
